# Reference: article PMC3600519, “Acute toxicity of vipoxin and its components: is the acidic component an “inhibitor” of PLA2 toxicity?” (Interdisciplinary Toxicology, 2012)
# B1: vipoxin's acidic component (natural protein)
# chain: NLFQFGDMILQKTGKEAVHSYAIYGCYCGWGGQGRAQDATDRCCFAQDCCYGRVNDCNPKTATYTYSFENGDIVCGDNDLCLRAVCECDRAAAICLGENVNTYDKNYEYYSISHCTEESEQC
# Target: T1, vipoxin basic and toxic phospholipase A2 subunit (Vipera ammodytes meridionalis, UniProt P14420 1-122)
# T1 sequence: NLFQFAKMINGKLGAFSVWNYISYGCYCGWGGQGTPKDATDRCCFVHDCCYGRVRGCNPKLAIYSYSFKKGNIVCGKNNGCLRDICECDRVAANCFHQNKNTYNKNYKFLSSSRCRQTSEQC
# Assay: cell-based or functional assay
binder,measurement,value
B1,"residual PLA2 enzyme activity (NOBA substrate) of reconstituted complex PLA2 + VAC (1:1 molar ratio), pre-incubation 1 min to 24 h (100, 120, 115, 114, 114, 113, 108, 78 %)",120%
